Patent US20150322119A1

How the values were obtained:
[1] = molecular target: murine FcγRIII, soluble form (mouse) (UniProt P08508); assay: SPR, equilibrium KD
[2] = molecular target: murine FcγRIIB, soluble form (mouse) (UniProt P08101); assay: SPR, equilibrium KD
[3] = molecular target: mouse FcRn (mouse) (UniProt Q61559); assay: SPR, FcRn coated on CM5 chip, antibody flowed at pH 6.0
[4] = molecular target: murine FcγRIV, soluble form (mouse); assay: SPR, equilibrium KD
[5] = molecular target: murine FcγRI extracellular domain with C-terminal 6×His-tag (mouse) (UniProt P26151); assay: SPR, equilibrium KD
Chain of UniProt P26151 (P26151 other isoform, or with tags, fused parts or gaps): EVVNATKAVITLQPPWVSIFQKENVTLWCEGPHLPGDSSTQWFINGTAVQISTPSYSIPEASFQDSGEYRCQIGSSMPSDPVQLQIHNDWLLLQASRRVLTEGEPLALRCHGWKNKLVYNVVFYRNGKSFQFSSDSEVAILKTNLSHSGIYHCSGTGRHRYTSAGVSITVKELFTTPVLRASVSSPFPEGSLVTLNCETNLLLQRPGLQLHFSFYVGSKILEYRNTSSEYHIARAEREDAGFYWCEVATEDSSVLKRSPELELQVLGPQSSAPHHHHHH

Chain of UniProt P08508 (P08508 31-215 limits assumed): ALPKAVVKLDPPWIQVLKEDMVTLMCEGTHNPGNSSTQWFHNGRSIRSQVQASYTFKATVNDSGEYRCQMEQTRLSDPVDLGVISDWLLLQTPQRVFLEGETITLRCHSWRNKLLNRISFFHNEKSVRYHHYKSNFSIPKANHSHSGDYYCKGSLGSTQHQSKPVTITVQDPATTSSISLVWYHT
Chain of mouse anti-mouse CTLA-4 antibody 9D9, mouse IgG2a isotype (P01863 whole entry): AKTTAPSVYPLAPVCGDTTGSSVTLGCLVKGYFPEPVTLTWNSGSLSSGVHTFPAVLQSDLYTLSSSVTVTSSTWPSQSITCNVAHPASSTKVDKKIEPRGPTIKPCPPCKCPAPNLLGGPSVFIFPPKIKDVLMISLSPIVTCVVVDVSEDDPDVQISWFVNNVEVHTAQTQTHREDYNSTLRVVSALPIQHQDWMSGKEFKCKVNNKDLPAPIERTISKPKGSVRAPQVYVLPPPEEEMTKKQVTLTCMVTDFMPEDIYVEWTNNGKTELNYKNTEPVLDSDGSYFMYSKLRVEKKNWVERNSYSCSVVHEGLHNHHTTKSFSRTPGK
Chain of UniProt P08101 (P08101 30-207 limits assumed): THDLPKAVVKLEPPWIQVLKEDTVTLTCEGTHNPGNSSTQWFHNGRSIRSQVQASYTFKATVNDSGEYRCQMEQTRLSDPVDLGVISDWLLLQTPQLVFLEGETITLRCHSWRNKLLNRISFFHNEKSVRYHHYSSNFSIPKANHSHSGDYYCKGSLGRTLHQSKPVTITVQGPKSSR
Chain of UniProt Q61559 (Q61559 22-297 limits assumed): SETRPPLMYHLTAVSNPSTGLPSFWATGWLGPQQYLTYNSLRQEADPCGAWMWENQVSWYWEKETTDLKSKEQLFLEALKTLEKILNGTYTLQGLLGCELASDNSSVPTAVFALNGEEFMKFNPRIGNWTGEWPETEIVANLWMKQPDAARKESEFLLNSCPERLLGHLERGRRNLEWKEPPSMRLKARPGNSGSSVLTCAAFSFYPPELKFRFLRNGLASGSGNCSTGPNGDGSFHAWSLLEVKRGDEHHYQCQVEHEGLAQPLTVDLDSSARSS

| Kd [1] [nM] | Kd [2] [nM] | Kd [3] [nM] | Kd [4] [nM] | Kd [5] [nM] | Substance |
| --- | --- | --- | --- | --- | --- |
| 1880 | 479 | 22.4 | – | – | mouse anti-mouse CTLA-4 antibody 9D9, mouse IgG1 isotype |
| – | – | 24.6 | – | – | mouse anti-mouse CTLA-4 antibody 9D9, mouse IgG1 isotype containing a D265A mutation (from UniProt P01868 1-324) |
| 1500 | 1410 | 13.5 | 29.4 | 32.7 | mouse anti-mouse CTLA-4 antibody 9D9, mouse IgG2a isotype |
| 2440 | 748 | 19.7 | 56.3 | – | mouse anti-mouse CTLA-4 antibody 9D9, mouse IgG2b isotype (original isotype, derived from the hybridoma) |
